These results are taken from publication PMC3738525.

Assay [1] addresses endogenous cofilin (human (endogenous in platelets and HUVEC)) (UniProt P23528). Kind of assay: cross-linking; intact endothelial cells (HUVEC, also transfected) in suspension, BMOE or BMH 1 mM or DMSO, 37 °C, one hour; Laemmli lysis, SDS-PAGE, immunoblot.
For assay [2] the target is unchanged. Kind of assay: cross-linking; human washed platelets (resting, or stimulated with thrombin, with or without Y27632) lysed in NP-40 lysis buffer with BMOE or BMH (0.2 mM; 0.1 mM BMOE in Figure 7), 20 minutes on ice; immunoblot.
For assay [3], the target named is recombinant (His)6-tagged human cofilin (human) (UniProt P23528). Kind of assay: cross-linking; phosphorylated (by GST-LIMK2) and unphosphorylated His-cofilin (16 μg) cross-linked with 2 and 20 mM BMOE.
For assay [4] the target is unchanged. Briefly: cross-linking; recombinant His-cofilin 10 µM to 40 µM in PBS pH 7.2, BMOE (two fold molar excess) or DMSO, one hour at room temperature; SDS-PAGE, Coomassie blue; oligomers only at >10 µM.

Values joined by “and” are separate entries in the source; they are usually repeats but may differ in a detail not shown here. Identical values can stand only once.

By stoichiometry N is commonly meant the number of molecules, sites or subunits per partner or assembly. For “endogenous cofilin (from UniProt P23528 1-166) (natural protein)”, the stoichiometry N in assay [1] and in assay [2] was 4 in each case.

As to “recombinant (His)6-tagged human cofilin (from UniProt P23528 1-166) (natural protein)”, the stoichiometry N in assay [3] is 2 and 3; in assay [4] it was 2 and 4 and 5.
